This note sets out measurements from the supplement of paper PMC10567573.

B1: RHOBTB2 (parent)
chain: LYTGELDENERDLMHIAHIAELLE
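Further: lentivirally expressed fusions sorted by FACS into six bins by GFP to DsRed ratio, PSI derived from sequencing read proportions per bin multiplied by bin number.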

Variants of B1 are the subject of this data set. In words: protein stability index of a GFP-peptide fusion (GPS, HEK-293T) (PSI 1-6); higher = more stable. The following applies: c terminus: a fixed tail appended.
Consider LYTGELDENERDLMHMAHIAELLE [I16M], for which the protein stability index was 2.51.

As to LYTGELDENERDLMHQAHIAELLE [I16Q], the protein stability index is 3.87.

Turning to LYTGELDENERDLMHTAHIAELLE [I16T], the protein stability index amounted to 3.62.

As for LYTGELDENERDLMHEAHIAELLE [I16E], the protein stability index was 4.85.

Regarding LYTGELDENERDLMHRAHIAELLE [I16R], the protein stability index worked out at 4.43.

Consider LYTGELDENERDLMHGAHIAELLE [I16G], for which the protein stability index stood at 4.06.

For LYTGELDENERDLMHCAHIAELLE [I16C], the protein stability index is 3.77.

As for LYTGELDENERDLMHVAHIAELLE [I16V], the protein stability index stood at 2.76.

Regarding LYTGELDENERDLMHKAHIAELLE [I16K], the protein stability index was 4.05.

Take LYTGELDENERDLMHHAHIAELLE [I16H]: the protein stability index worked out at 3.76.

Take LYTGELDENERDLMHSAHIAELLE [I16S]: the protein stability index was 3.9.

Consider LYTGELDENERDLMHDAHIAELLE [I16D], for which the protein stability index came out at 4.12.

Take LYTGELDENERDLMHPAHIAELLE [I16P]: the protein stability index was 4.15.

Regarding LYTGELDENERDLMHYAHIAELLE [I16Y], the protein stability index came out at 2.93.

For LYTGELDENERDLMHWAHIAELLE [I16W], the protein stability index was 3.16.

With LYTGELDENERDLMHNAHIAELLE [I16N], the protein stability index was found to be 3.54.

In the case of LYTGELDENERDLMHLAHIAELLE [I16L], the protein stability index was found to be 2.09.

As for LYTGELDENERDLMHFAHIAELLE [I16F], the protein stability index was determined as 2.71.

For the variant LYTGELDENERDLMHAAHIAELLE [I16A], the protein stability index turned out to be 4.07.

Take LYTGELDENERMLMHIAHIAELLE [D12M]: the protein stability index is 2.95.

Consider LYTGELDENERQLMHIAHIAELLE [D12Q], for which the protein stability index is 2.4.

Turning to LYTGELDENERNLMHIAHIAELLE [D12N], the protein stability index came out at 3.12.

Regarding LYTGELDENERLLMHIAHIAELLE [D12L], the protein stability index stood at 3.07.

Take LYTGELDENERHLMHIAHIAELLE [D12H]: the protein stability index turned out to be 3.13.

For the variant LYTGELDENERALMHIAHIAELLE [D12A], the protein stability index was 2.01.

For the variant LYTGELDENERFLMHIAHIAELLE [D12F], the protein stability index was found to be 2.78.

For LYTGELDENERILMHIAHIAELLE [D12I], the protein stability index worked out at 3.03.

On to LYTGELDENERPLMHIAHIAELLE [D12P], for which the protein stability index was determined as 2.43.

Regarding LYTGELDENERTLMHIAHIAELLE [D12T], the protein stability index is 2.43.

For LYTGELDENERCLMHIAHIAELLE [D12C], the protein stability index was found to be 2.53.

For LYTGELDENERKLMHIAHIAELLE [D12K], the protein stability index amounted to 3.02.

Turning to LYTGELDENERGLMHIAHIAELLE [D12G], the protein stability index is 2.74.

Regarding LYTGELDENERYLMHIAHIAELLE [D12Y], the protein stability index stood at 1.66.

With LYTGELDENERWLMHIAHIAELLE [D12W], the protein stability index was 2.49.

Regarding LYTGELDENERVLMHIAHIAELLE [D12V], the protein stability index worked out at 2.96.

LYTGELDENERSLMHIAHIAELLE [D12S]: the protein stability index was 2.56.

As to LYTGELDENERELMHIAHIAELLE [D12E], the protein stability index came to 2.47.

As to LYTGELDENERDFMHIAHIAELLE [L13F], the protein stability index was found to be 3.13.

As for LYTGELDENERDAMHIAHIAELLE [L13A], the protein stability index came to 3.08.

Turning to LYTGELDENERDWMHIAHIAELLE [L13W], the protein stability index was 2.65.

As for LYTGELDENERDHMHIAHIAELLE [L13H], the protein stability index worked out at 3.58.

Consider LYTGELDENERDPMHIAHIAELLE [L13P], for which the protein stability index worked out at 4.82.

With LYTGELDENERDKMHIAHIAELLE [L13K], the protein stability index was 3.1.

Regarding LYTGELDENERDVMHIAHIAELLE [L13V], the protein stability index came to 3.22.

Turning to LYTGELDENERDSMHIAHIAELLE [L13S], the protein stability index was 3.12.

For the variant LYTGELDENERDEMHIAHIAELLE [L13E], the protein stability index worked out at 3.44.

On to LYTGELDENERDRMHIAHIAELLE [L13R], for which the protein stability index was 3.06.

As for LYTGELDENERDYMHIAHIAELLE [L13Y], the protein stability index was determined as 2.59.

Take LYTGELDENERDMMHIAHIAELLE [L13M]: the protein stability index came out at 2.92.

As for LYTGELDENERDDMHIAHIAELLE [L13D], the protein stability index came out at 3.12.

Consider LYTGELDENERDQMHIAHIAELLE [L13Q], for which the protein stability index is 3.29.

On to LYTGELDENERDTMHIAHIAELLE [L13T], for which the protein stability index is 3.34.

For LYTGELDENERDGMHIAHIAELLE [L13G], the protein stability index turned out to be 3.74.

For LYTGELDENERDIMHIAHIAELLE [L13I], the protein stability index came to 2.38.

Turning to LYTGELDENERDCMHIAHIAELLE [L13C], the protein stability index is 3.45.

LYTGELDENERDNMHIAHIAELLE [L13N]: the protein stability index was 3.28.

As for LYTGELDENERDLMNIAHIAELLE [H15N], the protein stability index was 2.63.

As for LYTGELDENERDLMSIAHIAELLE [H15S], the protein stability index was 2.54.

As for LYTGELDENERDLMGIAHIAELLE [H15G], the protein stability index is 2.78.

In the case of LYTGELDENERDLMRIAHIAELLE [H15R], the protein stability index amounted to 2.42.

LYTGELDENERDLMKIAHIAELLE [H15K]: the protein stability index amounted to 2.21.

Turning to LYTGELDENERDLMEIAHIAELLE [H15E], the protein stability index worked out at 2.76.

Regarding LYTGELDENERDLMDIAHIAELLE [H15D], the protein stability index worked out at 3.36.

Consider LYTGELDENERDLMWIAHIAELLE [H15W], for which the protein stability index turned out to be 2.47.

Consider LYTGELDENERDLMQIAHIAELLE [H15Q], for which the protein stability index worked out at 2.4.

In the case of LYTGELDENERDLMMIAHIAELLE [H15M], the protein stability index was found to be 1.86.

LYTGELDENERDLMFIAHIAELLE [H15F]: the protein stability index amounted to 2.46.

As to LYTGELDENERDLMPIAHIAELLE [H15P], the protein stability index came out at 3.23.

With LYTGELDENERDLMTIAHIAELLE [H15T], the protein stability index is 1.53.

Take LYTGELDENERDLMYIAHIAELLE [H15Y]: the protein stability index was determined as 1.67.

Regarding LYTGELDENERDLMLIAHIAELLE [H15L], the protein stability index is 1.5.

As to LYTGELDENERDLMVIAHIAELLE [H15V], the protein stability index is 1.62.

Take LYTGELDENERDLMAIAHIAELLE [H15A]: the protein stability index turned out to be 1.74.

Regarding LYTGELDENERDLMCIAHIAELLE [H15C], the protein stability index is 2.13.

For LYTGELDENERDLMIIAHIAELLE [H15I], the protein stability index is 1.93.

For LYTGELDENKRDLMHIAHIAELLE [E10K], the protein stability index is 1.94.

For the variant LYTGELDENSRDLMHIAHIAELLE [E10S], the protein stability index worked out at 1.98.

Take LYTGELDENARDLMHIAHIAELLE [E10A]: the protein stability index came to 2.58.

As to LYTGELDENWRDLMHIAHIAELLE [E10W], the protein stability index amounted to 2.41.

With LYTGELDENNRDLMHIAHIAELLE [E10N], the protein stability index was 2.83.

As for LYTGELDENDRDLMHIAHIAELLE [E10D], the protein stability index turned out to be 2.87.

As for LYTGELDENMRDLMHIAHIAELLE [E10M], the protein stability index was found to be 1.68.

In the case of LYTGELDENGRDLMHIAHIAELLE [E10G], the protein stability index was 2.02.

Take LYTGELDENQRDLMHIAHIAELLE [E10Q]: the protein stability index came to 2.61.

Take LYTGELDENPRDLMHIAHIAELLE [E10P]: the protein stability index worked out at 1.88.

As for LYTGELDENRRDLMHIAHIAELLE [E10R], the protein stability index turned out to be 2.58.

In the case of LYTGELDENIRDLMHIAHIAELLE [E10I], the protein stability index was 2.26.

In the case of LYTGELDENYRDLMHIAHIAELLE [E10Y], the protein stability index was found to be 1.95.

With LYTGELDENVRDLMHIAHIAELLE [E10V], the protein stability index is 1.89.

As to LYTGELDENTRDLMHIAHIAELLE [E10T], the protein stability index turned out to be 2.66.

Consider LYTGELDENLRDLMHIAHIAELLE [E10L], for which the protein stability index stood at 2.24.

Turning to LYTGELDENFRDLMHIAHIAELLE [E10F], the protein stability index came to 2.53.

LYTGELDENHRDLMHIAHIAELLE [E10H]: the protein stability index turned out to be 2.05.

Take LYTGELDENCRDLMHIAHIAELLE [E10C]: the protein stability index stood at 2.6.
